Measurements published in article PMC9068512.

Molecular target: modified calcium-permeable rat GluA2flip subunit with Q586 at the Q/R site (GluA2*), as the GluA2 portion of the GluA2–γ2 fusion (rat) (UniProt P19491)
Experiment: cryo-EM structure; purified GluA2–γ2 fusion in 150 mM NaCl, 20 mM Tris-HCl pH 8.0, 0.05% digitonin, supplemented with 20 µM Glu and 100 µM CTZ; seven LBD–TMD reconstructions (NNNN, GNNN, GNGN1, GNGN2, GGNN, GGGN, GGGG)

Substance “modified calcium-permeable rat GluA2flip subunit with Q586 at the Q/R site (GluA2*), as the GluA2 portion of the GluA2–γ2 fusion (from UniProt P19491-2 22-883) (receptor)” has a stoichiometry N of 4.
